Measured values as given in patent publication US20220387417A1, “Pharmaceutical Combination and Use Thereof” (CSTONE PHARMACEUTICALS (SUZHOU) CO., LTD., priority 2019, published 2022).

Tests used:
[1] = Body weight of B-hPD-1 humanized mice bearing MC38-hPD-L1 tumors, Embodiment 2 (antibody 2E5 / Lenvatinib mesylate); assay type: in vivo, Mus musculus; conditions: for Weight (g)/Mean ± SEM Day 17: 17th day after the start of treatment; for Weight (g) Changes: Day 17 vs Day 0
Procedure: (§1) MC38-hPD-L1 tumor cells were resuspended in 1×PBS to a concentration of 5×10^5 cells per 0.1 mL. Each of the B-hPD-1 humanized mice was subcutaneously inoculated at the right lateral thorax region with 0.1 mL of the cell suspension. When the average tumor volume reached about 77 mm^3, the mice with moderate tumor volume were selected and randomly divided into 6 groups according to tumor volume, with 10 mice in each group, and the treatment was initiated on the same day.
Animals were weighed 2-3 times a week before tumor inoculation, during animal grouping and the treatment, and before the euthanasia.
(§2) The original data measured and observed must be recorded. The original data was analyzed and the results were expressed by mean and standard error (Mean±SEM). The data of body weight, tumor volume and tumor weight was statistically analyzed using independent-samples t-test. All data were analyzed using SPSS, P<0.05 is considered to be statistically significant.

[2] = test system: subcutaneous MC38-hPD-L1 transplanted tumor; experiment: Antibody 2E5 monotherapy or in combination with Lenvatinib mesylate on B-hPD-1 humanized mouse MC38-hPD-L1 colon cancer model: tumor volume, tumor weight, TGI, synergy score; assay type: in vivo; conditions: for Tumor volume (mm^3)/Mean ± SEM Day 17: 17th day after the start of treatment
Procedure: Synergy score was calculated using the following formula described in Clarke R. Issues in experimental design and endpoint analysis in the study of experimental cytotoxic agents in vivo in breast cancer and other models[J]. Breast Cancer Research & Treatment, 1997, 46(2-3):255-278, which is incorporated by reference in its entirety:
Synergy score=((A/C)×(B/C))/(AB/C);
where A is RTV value of drug A; B is RTV value of drug B; C is RTV value of vehicle control; AB is RTV value of combination treatment with A and B respectively. • Synergy score>1 represents synergistic; • Synergy score=1 represents additive; • Synergy score<1 represents antagonistic.
where V0 and Vt are the average tumor volume at the start of treatment (day 0) and the average tumor volume on a certain time point (day t).
Mouse colon cancer cells MC38 were purchased from Shun Ran (Shanghai) Biotechnology Co., Ltd., and the cells were cultured in a 37° C., 5% CO2 incubator supplemented with Dulbecco's Modified Eagle's medium containing 10% inactivated fetal bovine serum. MC38 cells were genetically modified to overexpress human PD-L1 and knock out murine PD-L1, the modified cells were named as MC38-hPD-L1 cells.
as §1
Tumor volume was measured 2-3 times a week in two dimensions using a caliper, and the volume was expressed in mm^3 using the formula: V=0.5 a×b^2 where a and b were the long and short diameters of the tumor, respectively.
At the termination of the experiment, the animals were photographed to record the tumor bearing state after euthanasia, and the tumors of the mice were weighed and photographed.
TGITV(%)=[1−(Ti−T0)/(Vi−V0)]×100%.
Ti: tumor volume of the treatment group at day i following treatment; T0: tumor volume of the treatment group at day 0 following treatment; Vi: tumor volume of the control group at day i following treatment; V0: tumor volume of the control group at day 0 following treatment.
At the termination of the experiment, the animals were euthanized, the tumors were separated and weighed, and the difference of tumor weight between each group was calculated. Tumor weight inhibition (TGITW) was calculated by the formula:
TGITW (%)=(WC−WT)/[…]×100%; where We means tumor weight of control group, WT means tumor weight of treatment group.
as §2

[3] = Antibody 2E5 1 mg/kg i.p., Lenvatinib mesylate 1 mg/kg p.o. QD (G2, G4, G5)
[4] = Antibody 2E5 2 mg/kg i.p., Lenvatinib mesylate 1 mg/kg p.o. QD (G3, G6)
[5] = Antibody 2E5 1 mg/kg, Lenvatinib mesylate 1 mg/kg (G2, G4, G5)
[6] = Antibody 2E5 2 mg/kg, Lenvatinib mesylate 1 mg/kg (G3, G6)

B1: Antibody 2E5: anti-PD-1 antibody (antibody N), heavy chain variable SEQ ID NO: 30, light chain variable SEQ ID NO: 31, human IgG4 constant region (antibody, V domains shown)
VH: QVQLVQSGAEVKKPGSSVKVSCKASGFTFTTYYISWVRQAPGQGLEYLGYINMGSGGTNYNEKFKGRVTITADKSTSTAYMELSSLRSEDTAVYYCAIIGYFDYWGQGTMVTVSS
VL: DVVMTQSPLSLPVTLGQPASISCRSSQSLLDSDGGTYLYWFQQRPGQSPRRLIYLVSTLGSGVPDRFSGSGSGTDFTLKISRVEAEDVGVYYCMQLTHWPYTFGQGTKLEIK
modifications: human IgG4 constant region; heavy chain variable region; light chain variable region
Weight (g)/Mean ± SEM Day 17 [1, 3]: 28.6 ± 0.7 g
Weight (g)/Mean ± SEM Day 17 [1, 4]: 27.8 ± 0.7 g
Weight (g)/Mean ± SEM Day 0 [1, 3]: 24.9 ± 0.7 g
Weight (g)/Mean ± SEM Day 0 [1, 4]: 25.0 ± 0.6 g
Weight (g) Changes [1, 5]: +3.7 g
Weight (g) Changes [1, 6]: +2.8 g
Tumor volume (mm^3)/Mean ± SEM Day 17 [2, 3]: 1195 ± 252 mm^3
Tumor volume (mm^3)/Mean ± SEM Day 17 [2, 4]: 1302 ± 202 mm^3
Tumor volume (mm^3)/Mean ± SEM Day 0 [2, 5]: 77 ± 2 mm^3
Tumor volume (mm^3)/Mean ± SEM Day 0 [2, 6]: 77 ± 2 mm^3
Tumor weight (g) Mean ± SEM ([2]; Day 17, Antibody 2E5 1 mg/kg, Lenvatinib mesylate 1 mg/kg (G2, G4, G5)): 0.909 ± 0.186 g
Tumor weight (g) Mean ± SEM ([2]; Day 17, Antibody 2E5 2 mg/kg, Lenvatinib mesylate 1 mg/kg (G3, G6)): 1.080 ± 0.190 g
Tumor growth inhibition (%) ([2]; by tumor volume, Day 17, vs hIgG4 control, Antibody 2E5 1 mg/kg, Lenvatinib mesylate 1 mg/kg (G2, G4, G5)): 56.4%
Tumor growth inhibition (%) ([2]; by tumor volume, Day 17, vs hIgG4 control, Antibody 2E5 2 mg/kg, Lenvatinib mesylate 1 mg/kg (G3, G6)): 52.2%
Tumor growth inhibition (%) ([2]; tumor weight analysis (Table 21), Day 17, vs IgG4 control, Antibody 2E5 1 mg/kg, Lenvatinib mesylate 1 mg/kg (G2, G4, G5)): 56.4%
Tumor growth inhibition (%) ([2]; tumor weight analysis (Table 21), Day 17, vs IgG4 control, Antibody 2E5 2 mg/kg, Lenvatinib mesylate 1 mg/kg (G3, G6)): 48.2%
